Reference: the nanobody polyreactivity screen of Harvey et al. (2022)

test: yeast display, Sf9 membrane polyspecificity reagent, FACS + sequencing; frameworks hold sequencing errors
Method in brief: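 Nanobodies from a synthetic yeast display library (Saccharomyces cerevisiae BJ5465), induced 36–48 hours with galactose, were stained 1 hour at 4 °C with 10% biotinylated, detergent-solubilized Sf9 membrane reagent, enriched on streptavidin microbeads, then FACS-sorted. Anti-HA (expression) and streptavidin (reagent binding) fluorescence set low and high (top ~1%) gates. Polyreactivity labels come from the gate of origin. Genes were colony-PCR amplified, MiSeq 2 × 250 sequenced and filtered by CDR length.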

Sequence	polyreactivity (PSR sort gate)
QVQLEDSGGGVVQAGGSLRLSCAASGSIYYPYAMGWNRQAPGKERELVARITSGGSTHYADSVKGRFTISRDNAKNTVYLQMNSLKPEETAVYYCNADYWFVESDYWGKGTQVTVSS	low polyreactivity
QVQLEESAGGIVQAGGSLRLSCAGSGSTVSVYAMGWYRQAPGKEWELVARIRWSSGITYYADSVNGRFTISRDNAKNTVYLQLNSVKPEDTAVYYCNAQYRRAYLWFLYDYWGQGTQVTVSS	high polyreactivity
QVQLEESAGGLVQAGGSLRLSCAASGSIFFFYAKGRYREAPGKERELVAAITGSGGSTYYADSVKGRFTISRVNAKNTVYLQMNSLKPEDTAVYDCAFRTSRQVYSYAGYESWGQGTHVTVSS	low polyreactivity
QVQLEESCGGLVQAGGRLRLSCAASGSIFRFNVMGWYRHAPGKERDLVAAITRGDSTNYADSVKGRFTISRDNAKITVYLQMNILIQDDSAVYYCAAGYYYYLRDHDYWGQGTQVTVSS	low polyreactivity
QVQLEESGAGLLQAGGSIRLSCAASGRTFWYYTMGWYRQAPGKEREVVAAISSGGRTNYADSVKGRFTISRDNAKNTVYLQMNSLKPEDTAVYDCAALYAKYYYRYDYWGQGTQVTVSS	high polyreactivity
QVQLEESGGCLVQAGGRIRLSCAASGLTFHRYAMGWYRQAPGKERELVAAINYSGGRTYYADSVKGRFTISRDNATNNVYLQMNSLKPEDTAVYYCAAPSASGYYWGQGNQVTVSS	high polyreactivity
QVQLEESGGCLVQAGGRIRLSCAASGSIFGYYAMGWYRQAPGKERELVADISYTGVSTYYADSVKGRFTISRDNAKNTVYLQMNSLKPEDTAVYYCAADWVYPDYSWYSYTDFDYWGQGTQVTVSS	low polyreactivity
QVQLEESGGCLVQAGGSLRLSCAASGSIFWYNAMGRSRQAPGKERELVAAISYSGDRTYYADSVKGRFTISRDNAKNTGYLLMNSLKPEVTAVYYCAKAGTCFYNSWWEDSWGQGTQVTLSS	low polyreactivity
QVQLEESGGGFVQAGGSLRLSCAASGFIFRRYAMGWYRQAPGKERELVAAISWRSGSTYYADSVKGRFTISRDNAKNTVYSPMKCLKPEDTAVYYCAAKDQATYQLYYWGQGTQVTVSS	high polyreactivity
QVQLEESGGGFVQAGGSLRLSCAPSGTTFKSNAMGWYRQAPGKERELVAAINSGTSTYYADSVKGRFTISRDNAKNTVYLQMNSLKPEDTAVYYCSADGIWGEYYYSELGDYDYWGLGTQVTVSS	low polyreactivity
QVQLEESGGGIVQAGGSLRLSCAASGITFYWYAMGWYRQAPGKERELVASITGNGGGTSYADSVKGRFTISRDNAKNTVYLQMNSLKPEDTAVYYCNTSVGVKDYVSWGQGTQVTLSS	low polyreactivity
QVQLEESGGGLDQAGGSLRLICAASGSIFPSYAMGWYRQAPGKERELVATIGRGGTTNYSDSVKGRFTISRDNAKITVYLLMNSLKPEDTAVYYCNADRIWRYKYGYDYWRQGTQVTVSS	high polyreactivity
QVQLEESGGGLDQAGGSLRLSCAASGRIFVFYAMGWYRQAPGKERELVAAITASSTRTYFADSVKGRFTISRDNAKNTVYLQMNSLKPEDTAVYYCAADRYYWGQGTQVTVSS	low polyreactivity
QVQLEESGGGLFQAGGSLRLSCAASGSTFVSNAMGWYRQAPGKDRELVAAISSSGGRTSYADSVKGRFTISRDNAKNTVYLQMNSLKPEDTAVYYCNRVSPGPDADLEFDYWGQGTQVTVSS	low polyreactivity
QVQLEESGGGLGQAGGSLRLSCAASGRIFRDYAMGWSRQAPGKERELVAAITSGGTTYADSVKGRVTISRDNAKNTVYLQLNSLKPEDTAVYYCNVAWIWGKFDYWGQGTQVTVSS	high polyreactivity
QVQLEESGGGLGQAGGSLRLTCAASGSIFRQYAMGWYRQAPGKERDLVATISRSGGSTYYADSVKGRFTISRDNAKNTVYLQLNSLKPEDTAVYYCAASRYNKSYREWWVGSWGQGTQVTVSS	high polyreactivity

Sequence	polyreactivity (PSR sort gate)
QVQLEESGGGLLQAGGSLRLSCAASGSTFLRNAKGWYRQAPGKERELVATITISGGSTHYADSVKGRFTISRDNAKNTVYLPMNSLKPEDTAVYYCGTPRYPSYDYWGQGTQVTVSS	low polyreactivity
QVQLEESGGGLVKARGSLRITCAASGSTFDYYTMGWYRQAPGKERELFAAINSSGGRTYYADSVKGRFTISRDTAKNTVYLQMNSLIPEDTAVYDCAAVTLCLGRYPYTYTSRYEYWGLGTQVTVSS	high polyreactivity
QVQLEESGGGLVQAGASLRLSCAASGRTFPRYAMGWSRQAPGKERELVAAITSSGGSTNYADSVKGRFTISRENATNSVYLQMYSLKPEDTAVYYCNARFPTQYILWSSSPYGYWGQGTQVTVSS	low polyreactivity
QVQLEESGGGLVQAGCSLRLSCAASGRIFHFYAIGRYRQAPGKERELVAVINGGGSTYYADSVKGRFTISRDNAKNTVYLQMNSLKPEVTAVYYCAADVYLSRYEKYGYWGQGTQVTVSS	high polyreactivity
QVQLEESGGGLVQAGGIRRLSCAASGRIFPYYAMGWYRLAPGKERELVAAISLSGGSTYYADSVKGRFTISRDTAKMSGYLQMTSLKPEDTAVYYGNAVASTSGYYWYPGLGYDYCGQGTQVTVSS	low polyreactivity
QVQLEESGGGLVQAGGRLRLSCAASGGNFNYYPMGWYREAPGKERELVAAITRGGSTYYADSVKGRFTISRDNAKNTVYLQMNSLKPEDTAVYYCAAGWRRYDKSPLEGSWGQGTQVTLSS	high polyreactivity
QVQLEESGGGLVQAGGRLRLSCAASGIIFGYYAIGWYRQAPGKERELVAAISSGGTTSYADSVKGRFTISRDNAKNTVYLQMNSLKPEDTSVYYCSARDWYDGFYYWGQGTQVTVSS	low polyreactivity
QVQLEESGGGLVQAGGRLRLSCAASGNTFQVYAMGWSRQASGTERELVATITSGGSTNYADSVKGRFTISRDNAKNTVYLQMNSQIPDDTAVYYCARRAVYSKRRYDYWGQGTQVTVSS	low polyreactivity
QVQLEESGGGLVQAGGRLRLSCAASGRTFGANAMGWYRQAPGKERELVATIRRGGSTYYADSVKGRFTISRDNAKNTFYLQMHSLKPEDTAVYYCATQYHSYAKEYDYWGQGTQVTVSS	low polyreactivity
QVQLEESGGGLVQAGGRLRLSCAASGSTCGTNVMGGARQAPGKERELVAAFSNGGSTNYADSVKGRFTISRDNAKITDYLQMNSLKPEDTAVYYCEFDYWGQGTQVTVSS	low polyreactivity
QVQLEESGGGLVQAGGSHRLSCAASGIIFRWYTMGWYRQAPGKERELVAAISTSTGSTYYADSVKGRFTISRDNAKNTVYLQMNSLKPEDTGVYYCAAEYAYWNYESYYWGQGTQVNVSS	high polyreactivity
QVQLEESGGGLVQAGGSHRLSCAASGSIFGPNAMGWSRQAPGKERELVAAISWTGGRTYYADSVKGRFTISRDNAYNTVYLQMNSLKPEDTAVYDCAVKGHPCGQGTQVTVSS	low polyreactivity
QVQLEESGGGLVQAGGSHRLSCPASGRTFYKNAMGWSRQAPRKERELVAAITSGGSTNYADSVKGRFSISRDNAKNSVYLQMNSLKSEDTAVYYCAAQQFPYYRSRFSYINKYDYWGQGTQVTVSS	high polyreactivity
QVQLEESGGGLVQAGGSLLLICADSGSILGGNAMGWYRHAPGKERQMVDAITFSGGGTYYADSVKGRFTLSRDNAKNTVYLQMNSLKPEDTAVYYCAADKDGYTYEFDYWGQGTQVTVSS	low polyreactivity
QVQLEESGGGLVQAGGSLRISCAASGFTFSHNAMGWYRQAPGKERELVAAISKGGSSTYYADSVKGRFTISRDNAKNTVYLQMNSLKPEDTAVYYCARPSPHKGYDYWGQGTQVTVSS	high polyreactivity
QVQLEESGGGLVQAGGSLRISCAASGITFDDYDMGWYRQAPGKERELVAAITWSGGSTYYADSVKGRFTSSRDNAKNTVYLQMNSLKPEVTAVSYCNAGSTWAYSYPVGKSDLDYWGQGTQVTVSS	low polyreactivity
